This note sets out measurements from patent US20160083701A1 (UNITED STATES OF AMERICA AS REPRESENTED BY THE DEPARTMENT …, published 2016).

In assay [1] the target is His-tagged recombinant rat AKAP18δ (rAKAP18δ) (rat) (UniProt Q6JP77). Nature of the assay: co-IP with anti-his beads, anti-Flag immunoblot, band ratios; reference is the same reaction without rPKAc. (In western blotting, separated proteins are transferred to a membrane and probed.)
Assay [2] deals with T1, Purified recombinant SERCA2 (rSERCA2, Abnova) (UniProt P16615 1-1042, limits assumed).
T1 construct: Bought protein; The legend gives 1042 amino acids, while the discussion calls it SERCA2a
Kind of assay: co-IP of the Flag-tagged construct with purified rSERCA2 (150 ng), anti-Flag IP, anti-SERCA2 immunoblot. The text has this: FIG. 11 a-d. rPKAc phosphorylates rhPDE3A and increases its interactions rSERCA2. A. Schemes representing PDE3A1 [NHR1: trans-membrane domain (obligatory membrane insertion domain); NHR2: membrane association domain; CCR: conserved C-terminal catalytic region; P1-4: predicted PKA phosphorylation sites; rhPDE3A and truncated mutants (PDE3A2, PDE3A-A510, PDE3A-RD), and rSERCA2 (1042 amino acids, 3-77 cation transporter N-terminal; 93-341, E1-E2 ATPase; 345-724, haloacid dehydrogenase like hydrolase; 819-991, cation transporter ATPase C-terminus). B. Putative PKA phosphorylation sites of PDE3A designated with asterisks. […] Proteins were immunoprecipitated with anti-Flag antibodies and immunoblotted with anti-SERCA2 (upper panel), or anti-Flag (middle panel). Lower panel: input control (SERCA2). Shown are representative blots from three independent experiments. (RD: regulatory domain; AA: amino acid).

T1 sequence (P16615 whole entry): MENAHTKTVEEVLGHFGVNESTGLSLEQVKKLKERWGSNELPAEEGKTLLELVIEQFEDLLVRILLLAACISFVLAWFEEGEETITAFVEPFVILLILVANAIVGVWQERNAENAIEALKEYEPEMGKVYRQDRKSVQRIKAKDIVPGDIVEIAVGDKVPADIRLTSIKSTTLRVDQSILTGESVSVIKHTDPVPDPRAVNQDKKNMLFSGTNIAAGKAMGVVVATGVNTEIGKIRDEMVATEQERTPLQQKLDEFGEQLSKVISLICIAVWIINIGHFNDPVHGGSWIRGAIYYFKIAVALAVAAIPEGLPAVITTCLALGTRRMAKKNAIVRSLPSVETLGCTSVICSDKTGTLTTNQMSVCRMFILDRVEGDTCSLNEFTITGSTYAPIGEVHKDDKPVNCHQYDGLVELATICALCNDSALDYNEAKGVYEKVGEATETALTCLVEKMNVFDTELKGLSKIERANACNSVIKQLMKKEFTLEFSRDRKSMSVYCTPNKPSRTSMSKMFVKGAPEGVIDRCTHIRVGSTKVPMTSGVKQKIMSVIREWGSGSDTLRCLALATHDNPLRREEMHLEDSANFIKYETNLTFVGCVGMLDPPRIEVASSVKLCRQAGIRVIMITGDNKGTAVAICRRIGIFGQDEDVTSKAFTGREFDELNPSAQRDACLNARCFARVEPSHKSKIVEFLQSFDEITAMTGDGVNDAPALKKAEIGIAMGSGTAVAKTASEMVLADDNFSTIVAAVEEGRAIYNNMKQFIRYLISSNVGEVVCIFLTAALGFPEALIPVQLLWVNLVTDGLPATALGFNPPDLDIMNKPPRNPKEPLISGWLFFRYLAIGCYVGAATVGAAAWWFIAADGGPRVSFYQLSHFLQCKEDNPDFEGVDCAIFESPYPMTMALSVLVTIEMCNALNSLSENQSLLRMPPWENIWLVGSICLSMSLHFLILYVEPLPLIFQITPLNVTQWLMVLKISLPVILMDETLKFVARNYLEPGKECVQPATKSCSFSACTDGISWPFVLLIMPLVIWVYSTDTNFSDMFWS
Sequence of His-tagged recombinant rat AKAP18δ (rAKAP18δ) (rat) (Q6JP77 whole entry, stated change not applied): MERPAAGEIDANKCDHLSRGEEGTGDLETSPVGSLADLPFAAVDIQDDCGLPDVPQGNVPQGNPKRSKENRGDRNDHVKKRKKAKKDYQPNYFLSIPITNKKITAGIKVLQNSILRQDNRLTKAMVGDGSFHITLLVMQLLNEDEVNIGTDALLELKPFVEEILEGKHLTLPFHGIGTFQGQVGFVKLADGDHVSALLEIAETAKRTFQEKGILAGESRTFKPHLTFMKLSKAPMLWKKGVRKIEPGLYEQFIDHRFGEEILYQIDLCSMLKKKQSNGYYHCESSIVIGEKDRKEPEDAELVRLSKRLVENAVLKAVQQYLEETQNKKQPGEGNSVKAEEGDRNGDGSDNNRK

With “Flag-tagged recombinant human PDE3A1 (rhPDE3A1), phosphorylated in vitro by rPKAc (from UniProt Q14432 146-1141) (enzyme)”, the fold increase in binding (with rPKAc against control without rPKAc) in assay [1] was found to be 9 fold.

B1: rhPDE3A-A510 (recombinant form lacking the first 510 aa of the PDE3A open reading frame) (enzyme)
chain: SRPGALAKISPLSSPCSSPLQGTPASSLVSKISAVQFPESADTTAKQSLGSHRALTYTQSAPDLSPQILTPPVICSSCGRPYSQGNPADEPLERSGVATRTPSRTDDTAQVTSDYETNNNSDSSDIVQNEDETECLREPLRKASACSTYAPETMMFLDKPILAPEPLVMDNLDSIMEQLNTWNFPIFDLVENIGRKCGRILSQVSYRLFEDMGLFEAFKIPIREFMNYFHALEIGYRDIPYHNRIHATDVLHAVWYLTTQPIPGLSTVINDHGSTSDSDSDSGFTHGHMGYVFSKTYNVTDDKYGCLSGNIPALELMALYVAAAMHDYDHPGRTNAFLVATSAPQAVLYNDRSVLENHHAAAAWNLFMSRPEYNFLINLDHVEFKHFRFLVIEAILATDLKKHFDFVAKFNGKVNDDVGIDWTNENDRLLVCQMCIKLADINGPAKCKELHLQWTDGIVNEFYEQGDEEASLGLPISPFMDRSAPQLANLQESFISHIVGPLCNSYDSAGLMPGKWVEDSDESGDTDDPEEEEEEAPAPNEEETCENNESPKKKTFKRRKIYCQITQHLLQNHKMWKKVIEEEQRLAGIENQSLDQTPQSHSSEQIQAIKEEEEEKGKPRGEEIPTQKPDQ
notes: The range 511-1141 follows from the statement that the first 510 aa of the open reading frame were deleted; Incubated with or without rPKAc
On to B1, for which the binding result in assay [2] was “no binding”.
